Assays:
human CCR8 [1] = biological target: T1, human CCR8 (human, UniProt P51685 1-355); test: cell-based or functional assay
human CCR8 [2] = biological target: T1, human CCR8; test: cell-based or functional assay; remark: listed apart in the source

T1 sequence (P51685 whole entry): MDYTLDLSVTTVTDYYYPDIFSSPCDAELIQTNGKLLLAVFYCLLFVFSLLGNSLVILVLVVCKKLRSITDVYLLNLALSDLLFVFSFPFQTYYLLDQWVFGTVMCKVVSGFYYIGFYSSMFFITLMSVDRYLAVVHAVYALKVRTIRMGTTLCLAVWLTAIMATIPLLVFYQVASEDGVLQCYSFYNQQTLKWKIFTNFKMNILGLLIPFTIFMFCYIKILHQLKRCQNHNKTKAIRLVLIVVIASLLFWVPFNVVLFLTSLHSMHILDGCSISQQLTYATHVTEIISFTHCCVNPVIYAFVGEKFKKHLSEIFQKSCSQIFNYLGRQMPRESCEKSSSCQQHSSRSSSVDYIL

Binder	EC50 of cytotoxic activity, luciferase; hCCR8/Fluc/Rat-1 target cells, mouse spleen-derived CD8-positive T cell effectors, antibody 10 pM-10 nM (human CCR8 [1]) [pM]	EC50 of killing rate; hCCR8/FLuc/Rat-1 target cells, activated PBMC effectors, E/T 3:1 (human CCR8 [2]) [pM]
B6-mCD3 (bispecific antibody) EVQLVESDGGLVQPGRSLKLSCAASGFTFSDYYMAWVRQAPTKGLEWVATITYDVYSTYYRDSVKGRFTISRDNAKSTLYLQMDSLRSEDTATYYCARHGGDGYNSGNWFAYWGQGTLVTVSSGGGGSGGGGSGGGGSDIVLTQSPALAVSLGQRATISCRASQSVSISRYNIMHWYQQKPGQQPKLLIYRASNLASGIPARFSGSGSGTDFTLTINPVQADDIATYYCQQSRESPPTFGGGTKLELKRAANASEVQLVESGGGLVQPGKSLKLSCEASGFTFSGYGMHWVRQAPGRGLESVAYITSSSINIKYADAVKGRFTVSRDNAKNLLFLQMNILKSEDTAMYYCARFDWDKNYWGQGTMVTVSSGGGGSGGGGSGGGGSDIQMTQSPSSLPASLGDRVTINCQASQDISNYLNWYQQKPGKAPKLLIYYTNKLADGVPSRFSGSGSGRDSSFTISSLESEDIGSYYCQQYYNYPWTFGPGTKLEIKHHHHHH	62.3	
B6-CD3-3 (bispecific antibody) EVQLVESDGGLVQPGRSLKLSCAASGFTFSDYYMAWVRQAPTKGLEWVATITYDVYSTYYRDSVKGRFTISRDNAKSTLYLQMDSLRSEDTATYYCARHGGDGYNSGNWFAYWGQGTLVTVSSGGGGSGGGGSGGGGSDIVLTQSPALAVSLGQRATISCRASQSVSISRYNIMHWYQQKPGQQPKLLIYRASNLASGIPARFSGSGSGTDFTLTINPVQADDIATYYCQQSRESPPTFGGGTKLELKRAANASEVQLVESGGGLVQPGGSLRLSCAASGFTFSTYAMNWVRQAPGKGLEWVGRIRSKYNNYATYYADSVKGRFTISRDDSKNTLYLQMNSLRAEDTAVYYCVRHGNFGDSYVSWFAYWGQGTLVTVSSGKPGSGKPGSGKPGSGKPGSQAVVTQEPSLTVSPGGTVTLTCGSSTGAVTTSNYANWVQQKPGKSPRGLIGGTNKRAPGVPARFSGSLLGGKAALTISGAQPEDEADYYCALWYSNHWVFGGGTKLTVLHHHHHH		1.62

— EP4722248A1 (Shionogi & Co., Ltd, dated 2026)
